The nature of this series: yeast display, Sf9 membrane polyspecificity reagent, FACS + sequencing; frameworks hold sequencing errors. A digest of the protocol: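 In a synthetic yeast display library (Saccharomyces cerevisiae BJ5465), nanobody expression was induced with galactose for 36–48 hours. FACS gates were set low and high (top ~1%) using anti-HA fluorescence for expression and streptavidin fluorescence for binding of the Sf9 membrane reagent. Each polyreactivity label is drawn from the gate of origin.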
In the case of “QVQLVESGGGLVQAGGSLRLSCAASGSTIEANAMGWYRQAPGKERELVAVNTWTGGSTYYADSVKGRFTISRDNAKNTVYLQMNSLKPEDTAVYYCAADGVVPGRFFWPAHEYDYWGQGTQVTVSS”, the “polyreactivity (PSR sort gate)” value is “low polyreactivity”.
Turning to “QVQLVESGGGLVQAGGSLRLSCAASGSTIFENVMGWYRQAPGKEREFVAAINTSGGSTYYADSVKGRFTISRDNAKYTVYLQMNSLKPEDTAVYYCARDSYWEMDYWGQGTQVNVSS”, the “polyreactivity (PSR sort gate)” value is “low polyreactivity”.
As for “QVQLVESGGGLVQAGGSLRLSCAASGSTIFFNAMGWYRQAPGKERELVAGISSSGGSTHYADSVKGRFTISRDNAKNTVYLQMNSLKPEDTAVYYCNAQQYLPSEGDYWGQGTQVTVSS”, the entry is “low polyreactivity”.
As to “QVQLVESGGGLVQAGGSLRLSCAASGSTIFLYDMGWYRQAPGKESELVAAITISGGSTYYADSVKGRFTISRDNAKNTVDLQMNSLKPEDTAVYYCAADRQWISLFGYPDGYDYWGQGTQVTVSS”, the “polyreactivity (PSR sort gate)” value is “high polyreactivity”.
For “QVQLVESGGGLVQAGGSLRLSCAASGSTIGFYAMGWYRQAPGKERELVAANSWTGGGTYYADSVKGRFTISRDNAKITVYLQMNSLKPEDTAVYYCARLYYFNGDFWGQGTQVTVSS”, the “polyreactivity (PSR sort gate)” value is reported as “high polyreactivity”.
Regarding “QVQLVESGGGLVQAGGSLRLSCAASGSTIGKNVMGWYRQAPGKEREVVAAISARGGRSYYADSVKGRFTISRDIAKNTVYLQMNSLKPEDTAVYYCNTERSYTGTGRYRSSTAYGYWGQGTQVTVSS”, the “polyreactivity (PSR sort gate)” value is on record as “high polyreactivity”.
With “QVQLVESGGGLVQAGGSLRLSCAASGSTIISYAMGWYRQAPGKERELVAAISSGGGRTSYADSVKGRFTISRDNAKNTVYLQMNSLKPEDTAVYYCNTKQLPYAEGYWGQGTQVTVSS”, the “polyreactivity (PSR sort gate)” value is on record as “low polyreactivity”.
Take “QVQLVESGGGLVQAGGSLRLSCAASGSTIKSNVLGWYRQAPGKERELVAAISSGDSTYYADSVKGRFTISRDNGKNTVYFQLNSLKPVDTAVFYCAARLGLQLVDTPDNDYWGQGTEVTVSS”: the “polyreactivity (PSR sort gate)” value is “low polyreactivity”.
In the case of “QVQLVESGGGLVQAGGSLRLSCAASGSTILHYAMGWYRQAPGKEREFTYYADSVKGRFTISRDNAKNTVCLQMNSLTPEDTAVYYCNADPAVSGGSIATDEYDYWVQGTQVTVSS”, the “polyreactivity (PSR sort gate)” value is listed as “low polyreactivity”.
For the sequence “QVQLVESGGGLVQAGGSLRLSCAASGSTILINAMGWYRQAPGKERELVAAISRDGSTNYADSVKGRFTISRDNAKNTVYLQMNSLKPEDTAVYYCAAVPGISVGRQPGYDYDYWGQGTQVTVSS”, the “polyreactivity (PSR sort gate)” value is “low polyreactivity”.
With “QVQLVESGGGLVQAGGSLRLSCAASGSTIPLYAMGWYRQAPGKERELVAAISRRGGRTYYADSVKGRFTISRDNAKNTVYLQMNSLKPEDTAVYYCATAQGSRVDYWGQGTQVTVSS”, the “polyreactivity (PSR sort gate)” value is listed as “high polyreactivity”.
For the sequence “QVQLVESGGGLVQAGGSLRLSCAASGSTIPYYAMGWYRQAPGKERELVARIRWNGDSTFYADSVKGRFTISRDNAKNTVYLQMNSLKTEDSAVYYCAAYGKRLGERLNYYYWGQGTQVTVSS”, the “polyreactivity (PSR sort gate)” value was “high polyreactivity”.
Regarding “QVQLVESGGGLVQAGGSLRLSCAASGSTIQQYAMGWYRQAPGKEREFVAAISWRGGRTYYADSVKGRFTISRDNAKNTVSLQMNSLKPEDTAVYYCAVDPSIYRLSAYYYDYWGQGTQVTVSS”, the “polyreactivity (PSR sort gate)” value is “low polyreactivity”.
Turning to “QVQLVESGGGLVQAGGSLRLSCAASGSTIRANAMGWYRQAPGKERELVAAITKNGGSTYYADSVKGRFTISRDNAKNTVYLQMNSLKPEDTAVYYCAARRSSRRPPYYYWGQGTQVTVSS”, the “polyreactivity (PSR sort gate)” value is “high polyreactivity”.
Take “QVQLVESGGGLVQAGGSLRLSCAASGSTIRDYAMGWYRQAPGKDRELVAVIDNSGGRTYYADSVKGRFTISRDNAKNTVYLQMNSLKPEDTAVYYCNTRRIAQYGYWGQGTQVTVSS”: the “polyreactivity (PSR sort gate)” value is reported as “high polyreactivity”.
Regarding “QVQLVESGGGLVQAGGSLRLSCAASGSTIRHYAMGWYRQAPGKERELVAAISSGARTYYADSVKGRFTISRDNAKNTVYLQMNSLKPEDTAVYYCAARYNGYAYPYYYWGQGTQVTVSS”, the “polyreactivity (PSR sort gate)” value is on record as “high polyreactivity”.
For the sequence “QVQLVESGGGLVQAGGSLRLSCAASGSTIRVNVMGWYRQAPGKERELVAAITTSGGSTYYADSVKGRFTISRDNAKNTVYLQMNSLKPEDTAVYYCNTTYPSGWGPDMDYWGQGTQVTVSS”, the “polyreactivity (PSR sort gate)” value is “low polyreactivity”.
Take “QVQLVESGGGLVQAGGSLRLSCAASGSTIRWYAMGWDRQAPGKERELVASITWSGGGTYYADSVKGRFTISRDNAKNTVYLQMNSLKPEDTAVYYCNRRTWRYETRGDDYWGQGTQVTVSS”: the “polyreactivity (PSR sort gate)” value was “high polyreactivity”.
Take “QVQLVESGGGLVQAGGSLRLSCAASGSTIRYYAMGWYRQAPGKERELVAAITKSGGSTYYADSVKGRFTISRDNAKKTVYLQMNSLKPEDTAVYYCAAVRRWYYPALSEHDYWGQGTQVTVSS”: the “polyreactivity (PSR sort gate)” value is “low polyreactivity”.
In the case of “QVQLVESGGGLVQAGGSLRLSCAASGSTIRYYAMGWYRQAPGKERELVAAITKSGGSTYYADSVKGRFTISRDNAKNTVYLQMNSLKPEDTAVYYCAAVRRWYYPALSEHDYWGQGTQVTVSS” it was “low polyreactivity”; in that of “QVQLVESGGGLVQAGGSLRLSCAASGSTISYYAMGWYRQAPGKERELVAGISGSTGTTYYADSVKGRFTISRDNAKNTVYLQMNSLKPEDTAVYYCAKLFPVARPQYGYWGQGTQVTVSS”, “low polyreactivity”.
Regarding “QVQLVESGGGLVQAGGSLRLSCAASGSTITHNAMGWYRQAPGKERELVATISSGGSTNYADSVKGRFTISRDNAKNTVYLQMNRLKPEDTAVYYCAKPRYRSHVVYGPASGDDYWGQGTQVTVSS”, the “polyreactivity (PSR sort gate)” value was “low polyreactivity”.
As for “QVQLVESGGGLVQAGGSLRLSCAASGSTITQYAMGWYRQAPGKEREFVAAINSRGDSTYYADSVKGRFTISRDNAKNTVYLQMNSLKPEDTAVYYCNADYQTDDDPYGYDYWGQGTQVTVSS”, the entry is “low polyreactivity”; as for “QVQLVESGGGLVQAGGSLRLSCAASGSTIVDYAMGWYRQAPGKERELVAAITSGDSTNYADSVKGRFTISRDNAKNTVYLLMKSLKPEDTAVYYCAARLRYSFWYWDDYWGQGTQVSVSS”, “high polyreactivity”.
Regarding “QVQLVESGGGLVQAGGSLRLSCAASGSTIVRYAMGWNRQAPGKERELVAAISSRGGCTYYADSVKGRFTISRDNAKNTVYLQMNSLKPEDTAVYYCNADYSVGSWGQGTQVTVSS”, the “polyreactivity (PSR sort gate)” value is “high polyreactivity”.
As for “QVQLVESGGGLVQAGGSLRLSCAASGSTIVYNAMGWYRQAPGKEREFVAAISWSGGSTYYADSVKGRFTISRDNAKNTVYLQMNSLKPEDTAIYYCAATSRSNGFRYYYWGQGTQVTVSS”, the entry is “high polyreactivity”.
For the sequence “QVQLVESGGGLVQAGGSLRLSCAASGSTIWYYVMGWYRAAPGKERELVAAIRSNDGSTYYADSVKGRFTISRDNAKNTDYLQLNRLKPEDTAVYYCAADDWVYAQEYDYWGQGTQVTVSS”, the “polyreactivity (PSR sort gate)” value is recorded as “low polyreactivity”.
Take “QVQLVESGGGLVQAGGSLRLSCAASGSTIYDNAMGWSRQAPGKERELVAAITWSVGRTYYADSVKGRFTISRDNAKNTVYLQMNSLKPEDTAVYYCAARYQYYSTYGVTLDYWGQGTQVTVSS”: the “polyreactivity (PSR sort gate)” value is given as “low polyreactivity”.
Turning to “QVQLVESGGGLVQAGGSLRLSCAASGSTIYTYVMGWYRPAPGKERELVAAISWSGSSTYYADSVKGRFTISRDNAKNTVYLQMNSLKPEDTAVYYCNAQYRRGWWGVEYGYWGQGTQVTVSS”, the “polyreactivity (PSR sort gate)” value was “low polyreactivity”.
Turning to “QVQLVESGGGLVQAGGSLRLSCAASGSTLARNVMGWYRQAPGKERELVAAISTSGGITYYADSVKGRFTISRDNAKNTVYLQMNSLKPEDTADYYCAKYYYNPYSKMDYWGQGTQVTVSS”, the “polyreactivity (PSR sort gate)” value is recorded as “low polyreactivity”.

For the origin of these results see the nanobody polyreactivity screen of Harvey et al. (2022).
